Results on 72 sequences are retold here after the supplement of paper PMC10567573.

This data set is described as follows: protein stability index of a GFP-peptide fusion (GPS, HEK-293T) (PSI 1-6); higher = more stable.
Where [1] appears, read: treatment: DMSO, c terminus: native.
Setting [2] is: treatment: MLN4924 1 uM, 8 h, c terminus: native.
The mark [3] stands for this setting: treatment: DMSO, c terminus: a fixed tail appended.
Setting [4] is: treatment: MLN4924 1 uM, 8 h, c terminus: a fixed tail appended.

± gives the standard deviation.
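Also: 24-mer peptide tiles fused after GFP, lentivirally expressed, FACS-sorted into six equal bins by GFP/DsRed ratio, decoded by Illumina sequencing, PSI is the read-weighted mean bin number.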

As to GDRAGDASKDILLGPWDMVLAQG [SCARA5], the protein stability index runs as follows: under setting [1], 2.76 ± 0.64; under setting [2], 2.69 ± 0.54.

As for GDTSATESGDEVPVELYTAFQHTP [KMT2E], the protein stability index under setting [3] was 4.97 ± 0.18 and the protein stability index under setting [4] came to 5.04 ± 0.17.

For GERVVINISGLRFETQLKTLCQFP [KCNA3], the protein stability index runs as follows: under setting [3], 2.61 ± 0.45; under setting [4], 2.19 ± 0.083.

As for GESDNPLRFTSGLVVALDVDATLE [INTS4], the protein stability index reads like this: under setting [3], 3.23 ± 0.37; under setting [4], 3.54 ± 0.15.

As to GFIKKFVLCPECENPETDLHVNPK [EIF5], the protein stability index stood at 3.09 ± 0.38 under setting [3] and 3.29 ± 0.05 under setting [4].

Consider GGLLDEAMLDEISLMDLAIEEGFN [NFE2L1], for which the protein stability index by setting is: under setting [3], 4.16 ± 0.21; under setting [4], 3.86 ± 0.31.

GGLSLHDYKLLKPSLAVNLADPYR [JUNB]: the protein stability index was 2.65 ± 0.13 under setting [3] and 2.76 ± 0.098 under setting [4].

Regarding GGPAGQAGRGGAAGTAGVGETGSG [MYOZ1], the protein stability index reads like this: under setting [3], 5.42 ± 0.21; under setting [4], 5.34 ± 0.32.

Regarding GGSSGKGTTLRGRSDADLVVFLSP [OAS1], the protein stability index is, setting by setting: under setting [3], 2.73 ± 0.17; under setting [4], 3.07 ± 0.35.

As to GGWETVFRPVSETCTDRSGISTGH [FUT8], the protein stability index was determined as 3.48 ± 0.35 under setting [3] and 3.43 ± 0.22 under setting [4].

Turning to GGYRPAEDKIFPVPEEPPVKKLMR [ZBED1], the protein stability index turned out to be 3.99 ± 0.13 under setting [3] and 4.36 ± 0.3 under setting [4].

Turning to GKIIGGMWRDLTDEEKQEYLNEYE [SMARCE1], the protein stability index by setting is: under setting [3], 4.56 ± 0.14; under setting [4], 4.64 ± 0.27.

Turning to GKNNEFSRLVAGEYLSFFDFSGLT [PSD2], the protein stability index came out at 2.13 ± 0.41 under setting [3] and 2.13 ± 0.32 under setting [4].

Regarding GKRMEFTSSCPNVSERSFDNVRSL [CRYBA1], the protein stability index reads like this: under setting [3], 4.12 ± 0.3; under setting [4], 4.17 ± 0.28.

Regarding GKRTPRGRRGWKKFYAVLKGTILY [PSD2], the protein stability index under setting [3] turned out to be 2.97 ± 1.6 and the protein stability index under setting [4] is 2.61 ± 0.73.

GKVAVGQDDLTVVLNEEGICTQKC [VPS39]: the protein stability index reads like this: under setting [3], 4.91 ± 0.22; under setting [4], 4.79 ± 0.28.

Take GLEQFINKVAGHPLAQNERCLHMF [SNX3]: the protein stability index is, setting by setting: under setting [3], 2.72 ± 0.61; under setting [4], 2.21 ± 0.11.

As to GNIKGIEGHSPGNLPKFCHECGTK [ZC2HC1A], the protein stability index runs as follows: under setting [3], 3.82 ± 0.52; under setting [4], 4.59 ± 0.085.

In the case of GPASRMDPESERALQAPHSPSKTD [PBXIP1], the protein stability index is, setting by setting: under setting [3], 5.46 ± 0.24; under setting [4], 5.34 ± 0.23.

Turning to GPFRTLLQFLYTGQLDEKEKDLVG [RHOBTB1], the protein stability index reads like this: under setting [3], 2 ± 0.054; under setting [4], 2.49 ± 0.3.

With GPMCDLLWSDPDDRGGWGISPRGA [PPP2CA], the protein stability index by setting is: under setting [3], 3.1 ± 0.42; under setting [4], 3.21 ± 0.33.

As for GPNPSKLIQQFLTLRPDQQLHIFN [CDS2], the protein stability index amounted to 2.16 ± 0.42 under setting [3] and 2.09 ± 0.25 under setting [4].

The sequence GQDTMLKAMFSGRVEVLTDAGGWV [KCTD13] had a protein stability index under setting [3] of 2.45 ± 0.26 and a protein stability index under setting [4] of 2.36 ± 0.35.

Regarding GQPAPPQLLLGRLFRWPDLQHAVE [SMAD6], the protein stability index is, setting by setting: under setting [3], 2.63 ± 0.1; under setting [4], 2.82 ± 0.39.

With GQTTGHPYYLRSFLVVLKTVLENE [FAN1], the protein stability index is, setting by setting: under setting [3], 2.46 ± 0.5; under setting [4], 2.21 ± 0.04.

With GRTHSACDALRTLAEARRLFPGRV [RSAD1], the protein stability index is, setting by setting: under setting [3], 2.99 ± 0.29; under setting [4], 3.44 ± 0.29.

As to GSGYEKLGPSRDPDPLNICVFILL [RTP4], the protein stability index under setting [3] was found to be 3.15 ± 0.2 and the protein stability index under setting [4] stood at 2.45 ± 0.68.

Take GSNPPYLPFRDASFGNCTYNLTIL [CDC14A]: the protein stability index runs as follows: under setting [3], 2.6 ± 0.69; under setting [4], 2.8 ± 0.73.

As to GSPDDSHPKDGPSPGGTLMDLSER [DLC1], the protein stability index amounted to 5.54 ± 0.32 under setting [3] and 5.48 ± 0.28 under setting [4].

As for GSPVSSWILLAESNSADDETDDPR [OAS1], the protein stability index came to 5.02 ± 0.27 under setting [3] and 4.99 ± 0.39 under setting [4].

The sequence GSRVISHYAGQDATDPFVAFHINK [FADS1] displayed a protein stability index under setting [3] of 3.33 ± 0.31 and a protein stability index under setting [4] of 3.35 ± 0.22.

The sequence GSSSVALPKEASDGTGASQEPPTT [TOR1AIP2] registered a protein stability index under setting [3] of 5.4 ± 0.43 and a protein stability index under setting [4] of 5.6 ± 0.34.

In the case of GTAGPLALARDLLSETADPFFVLN [GMPPB], the protein stability index by setting is: under setting [3], 3.18 ± 0.31; under setting [4], 3.23 ± 0.27.

For GTRGRLESAQATFQAHRDKYEKLR [ARFIP2], the protein stability index under setting [3] was 4.27 ± 0.31 and the protein stability index under setting [4] is 4.44 ± 0.28.

GTRYSAPANLYVRELREVRRVPPR [PTPRD]: the protein stability index was 4.23 ± 0.23 under setting [3] and 3.9 ± 0.12 under setting [4].

As for GVGAYGTVYKARDPHSGHFVALKS [CDK4], the protein stability index stood at 2.89 ± 0.12 under setting [3] and 3.05 ± 0.32 under setting [4].

Consider GVGGKRSSKSDADSGFLGLRPTSV [NOP53], for which the protein stability index by setting is: under setting [3], 4.16 ± 0.44; under setting [4], 4.03 ± 0.27.

In the case of GVIDLFGDAFGSSASEPQPASQAA [SNAP91], the protein stability index amounted to 3.98 ± 0.14 under setting [3] and 4.11 ± 0.17 under setting [4].

For GVLVEDSNNHHLMLEASEWATIEG [ZBED1], the protein stability index by setting is: under setting [3], 4.2 ± 0.33; under setting [4], 4.6 ± 0.32.

In the case of GVSFSTVENELMISYLMFLQILVY [FAM98B], the protein stability index is, setting by setting: under setting [3], 3.08 ± 0.45; under setting [4], 3.22 ± 0.41.

With GVSYTFDNEDSELNGDYGENIYPY [MIA2], the protein stability index amounted to 3.93 ± 0.061 under setting [3] and 3.77 ± 0.55 under setting [4].

Regarding GWFVRELRVEFAAENYLSGGGPGD [FBXO33], the protein stability index reads like this: under setting [3], 2.14 ± 0.27; under setting [4], 2.21 ± 0.28.

With GYPAAPPAVPFAPHFLQGGPFPLP [TBX6], the protein stability index is, setting by setting: under setting [3], 2.52 ± 0.58; under setting [4], 2.7 ± 0.35.

Consider HADCDRRSRIEALELLGASFANDR [FEM1B], for which the protein stability index is 3.98 ± 0.31 under setting [3] and 4.17 ± 0.19 under setting [4].

For HAVVEVEDVPLAAKLVDLPCVIES [TAF7L], the protein stability index reads like this: under setting [3], 3.86 ± 0.28; under setting [4], 4.03 ± 0.17.

For the sequence HCGELKRRLGLSTLGELKQNLSRS [TPD52L2], the protein stability index is, setting by setting: under setting [3], 3.04 ± 0.22; under setting [4], 3.22 ± 0.44.

In the case of HFCVDDTKLLSGSYDCTVKLWDPV [WDR88], the protein stability index is, setting by setting: under setting [3], 2.65 ± 0.24; under setting [4], 2.58 ± 0.23.

Regarding HGDYFRLLLPGIYTVSATAPGYDP [CPN1], the protein stability index by setting is: under setting [3], 2.78 ± 0.71; under setting [4], 2.48 ± 0.48.

Regarding HGIELHSDVVEYAKEKLESFIKNS [PCMTD1], the protein stability index turned out to be 3.95 ± 0.35 under setting [3] and 4.04 ± 0.15 under setting [4].

With HGRHIDCPATWGPSVEQAADSLDF [FOXJ1], the protein stability index runs as follows: under setting [3], 4.31 ± 0.22; under setting [4], 4.58 ± 0.11.

In the case of HIFAHRIYLATSSSKFYDLFLMEC [RHOBTB1], the protein stability index came out at 3.07 ± 0.6 under setting [3] and 2.38 ± 0.49 under setting [4].

In turn, HKTHQAPASASSLPGTGAQLPPQP [DYRK1B] registered a protein stability index under setting [3] of 4.55 ± 0.43 and a protein stability index under setting [4] of 4.97 ± 0.22.

Take HLDHYYQEELPALLKALVSELSEH [FCHSD1]: the protein stability index by setting is: under setting [3], 2.3 ± 0.079; under setting [4], 2.15 ± 0.37.

Consider HLQEYAGNFQGIRFHYDRNPGTDA [FATE1], for which the protein stability index came to 3.37 ± 0.39 under setting [3] and 3.46 ± 0.3 under setting [4].

For the sequence HMVKISGGPRISYPLLHEWALREG [MAGEA6], the protein stability index was found to be 2.47 ± 0.23 under setting [3] and 2.46 ± 0.22 under setting [4].

In the case of HRSACSSAAVRGHPRALPPDARPH [HAGHL], the protein stability index is, setting by setting: under setting [3], 3.81 ± 0.19; under setting [4], 3.77 ± 0.17.

Sequence HSYMGMRGFCAFLGSWLVPFAYLT [POMT2] displayed a protein stability index under setting [3] of 2.96 ± 0.86 and a protein stability index under setting [4] of 3.04 ± 0.62.

Regarding HTCLMISCYKGHREIARYLLEQGA [FEM1A], the protein stability index amounted to 2.46 ± 0.5 under setting [3] and 2.38 ± 0.35 under setting [4].

For the sequence HTGERPYECTVCKKRFTRRSHLIG [ZNF449], the protein stability index under setting [3] is 2.67 ± 0.36 and the protein stability index under setting [4] came out at 3.17 ± 0.88.

For HVIGEDAACIAYIRLTQYIDGQGR [CAMK2B], the protein stability index is 2.15 ± 0.21 under setting [3] and 2.08 ± 0.2 under setting [4].

Turning to HWATGYSKSSHPLIRSLFHGFLFM [SOAT1], the protein stability index by setting is: under setting [3], 2.86 ± 0.7; under setting [4], 2.49 ± 0.56.

For HYICTLKQPHLLLEKYSYYLISG [PNLIPRP1], the protein stability index worked out at 3.31 ± 0.66 under setting [1] and 3.39 ± 0.14 under setting [2].

Turning to HYYPKLMSIMGNVLRFLPAFVRMK [GFOD1], the protein stability index by setting is: under setting [3], 2.41 ± 0.12; under setting [4], 2.24 ± 0.12.

Turning to IANYELVYKDGEHGEEQRITIEPG [PTPRD], the protein stability index runs as follows: under setting [3], 4.64 ± 0.34; under setting [4], 4.8 ± 0.28.

IAYYSYIYSVVDLGMYQKVTSYCR [SLC19A2]: the protein stability index under setting [3] turned out to be 3.28 ± 0.38 and the protein stability index under setting [4] amounted to 2.62 ± 0.071.

ICLEMFTKPVVILPCQHNLCRKCA [TRIM63]: the protein stability index amounted to 2.2 ± 0.054 under setting [3] and 2.41 ± 0.13 under setting [4].

Turning to IDILWRQDIDLGAGREVFDYSHRQ [NFE2L1], the protein stability index by setting is: under setting [3], 2.24 ± 1; under setting [4], 2.49 ± 0.34.

As to IENRDVAKSVLKERGLKKIRLGIE [BTBD10], the protein stability index runs as follows: under setting [3], 3.36 ± 0.28; under setting [4], 3.32 ± 0.13.

On to IFRCFCPVFLHSQMLWELVLLGEP [DENND6A], for which the protein stability index runs as follows: under setting [3], 3.17 ± 0.39; under setting [4], 2.87 ± 0.33.

Consider IGAAPFSGRRNWCSYVVTRTISCH [EMID1], for which the protein stability index worked out at 2.23 ± 0.27 under setting [3] and 2.07 ± 0.23 under setting [4].

With IGAFLNLVVLRFLTMNSEDERRDA [KCNK9], the protein stability index reads like this: under setting [3], 3.27 ± 0.77; under setting [4], 3.02 ± 0.6.

Take IGGSGFLGQHMVEQLLARGYAVNV [NSDHL]: the protein stability index is, setting by setting: under setting [3], 2.16 ± 0.054; under setting [4], 2.23 ± 0.2.
